Assay results from PMC9482650, “Quantitative fragmentomics allow affinity mapping of interactomes” (Nature Communications, 2022).

How the values were obtained:
Experiment in all cases: holdup assay
Parameters in all cases: key: below the threshold = too weak to quantify, mostly under pKd 3.1 to 4
[1] = target: T1, LRRC7, Q96NW7
T1 sequence (Q96NW7 1440-1537, limits assumed, looked up): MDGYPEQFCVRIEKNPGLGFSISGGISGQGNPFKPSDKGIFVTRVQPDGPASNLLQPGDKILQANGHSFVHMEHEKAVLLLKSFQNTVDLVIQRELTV

[2] = target: GRIP2_6, Q9C0E4
Sequence of GRIP2_6, Q9C0E4 (Q9C0E4 648-740): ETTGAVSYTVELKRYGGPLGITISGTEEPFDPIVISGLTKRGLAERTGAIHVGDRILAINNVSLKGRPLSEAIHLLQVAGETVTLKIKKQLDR

[3] = target: PARD3_3, Q8TEW0
Sequence of PARD3_3, Q8TEW0 (Q8TEW0 582-685): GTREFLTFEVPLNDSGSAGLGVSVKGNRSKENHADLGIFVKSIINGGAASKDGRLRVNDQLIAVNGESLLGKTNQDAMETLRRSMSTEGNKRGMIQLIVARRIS

[4] = target: T2, TIAM2, Q8IVF5
T2 sequence (Q8IVF5 885-986, limits assumed, looked up): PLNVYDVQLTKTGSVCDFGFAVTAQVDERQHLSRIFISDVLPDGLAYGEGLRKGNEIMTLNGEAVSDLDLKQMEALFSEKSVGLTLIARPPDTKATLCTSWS

[5] = target: T3, NHERF3_1, Q5T2W1
T3 sequence (Q5T2W1 4-100, limits assumed, looked up): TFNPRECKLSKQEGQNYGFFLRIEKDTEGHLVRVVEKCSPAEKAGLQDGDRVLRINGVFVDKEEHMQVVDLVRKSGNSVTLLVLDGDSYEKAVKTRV

[6] = target: LIMK2, P53671
Sequence of LIMK2, P53671 (P53671 143-248): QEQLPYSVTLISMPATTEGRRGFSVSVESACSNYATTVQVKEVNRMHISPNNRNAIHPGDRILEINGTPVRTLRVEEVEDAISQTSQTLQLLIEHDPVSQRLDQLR

[7] = target: ARHGEF12, Q9NZN5-2
Sequence of ARHGEF12, Q9NZN5-2 (Q9NZN5 other isoform, or with tags, fused parts or gaps): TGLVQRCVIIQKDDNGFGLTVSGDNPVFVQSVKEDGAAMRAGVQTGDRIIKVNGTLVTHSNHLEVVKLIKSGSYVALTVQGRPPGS

[8] = target: IL16_1, Q14005
Sequence of IL16_1, Q14005 (Q14005 210-306): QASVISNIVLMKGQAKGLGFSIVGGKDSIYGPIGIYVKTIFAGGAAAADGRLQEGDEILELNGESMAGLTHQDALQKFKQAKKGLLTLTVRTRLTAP

[9] = target: T4, PARD3B_1, Q8TEW8
T4 sequence (Q8TEW8 196-299, limits assumed, looked up): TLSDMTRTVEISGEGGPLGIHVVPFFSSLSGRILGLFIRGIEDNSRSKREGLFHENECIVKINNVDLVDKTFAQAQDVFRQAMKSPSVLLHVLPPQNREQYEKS

[10] = target: T5, SNTG2, Q9NY99
T5 sequence (Q9NY99 68-166, limits assumed, looked up): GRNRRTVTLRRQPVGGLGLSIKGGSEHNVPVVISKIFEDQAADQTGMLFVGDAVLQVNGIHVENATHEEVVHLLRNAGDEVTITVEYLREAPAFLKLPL

[11] = target: PTPN3, P26045
Sequence of PTPN3, P26045 (P26045 505-587): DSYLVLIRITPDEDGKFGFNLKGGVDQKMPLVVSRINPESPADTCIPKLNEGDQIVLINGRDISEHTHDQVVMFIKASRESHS

[12] = target: Inadl_3, Q8NI35
Sequence of Inadl_3, Q8NI35 (Q8NI35 359-469): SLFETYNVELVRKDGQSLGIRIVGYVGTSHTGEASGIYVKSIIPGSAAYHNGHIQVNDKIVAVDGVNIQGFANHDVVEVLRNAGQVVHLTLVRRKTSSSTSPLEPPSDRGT

[13] = target: PICK1, Q9NRD5
Sequence of PICK1, Q9NRD5 (Q9NRD5 17-115): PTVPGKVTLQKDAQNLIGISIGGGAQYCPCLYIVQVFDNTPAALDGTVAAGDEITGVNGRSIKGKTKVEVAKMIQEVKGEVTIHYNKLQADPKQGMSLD

[14] = target: GRASP, Q7Z6J2
Sequence of GRASP, Q7Z6J2 (Q7Z6J2 96-193): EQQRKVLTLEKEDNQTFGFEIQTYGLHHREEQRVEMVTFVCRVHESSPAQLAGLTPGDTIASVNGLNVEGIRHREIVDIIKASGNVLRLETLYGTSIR

[15] = target: DLG4_3, P78352
Sequence of DLG4_3, P78352 (P78352 306-403): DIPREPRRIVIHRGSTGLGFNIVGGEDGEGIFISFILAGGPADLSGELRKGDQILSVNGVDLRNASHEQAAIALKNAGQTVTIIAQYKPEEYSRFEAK

[16] = target: Inadl_1, Q8NI35
Sequence of Inadl_1, Q8NI35 (Q8NI35 113-229): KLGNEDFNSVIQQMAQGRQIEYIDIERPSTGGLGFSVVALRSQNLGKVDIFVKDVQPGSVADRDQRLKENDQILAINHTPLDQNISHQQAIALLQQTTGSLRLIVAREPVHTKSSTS

[17] = target: T6, NHERF3_3, Q5T2W1
T6 sequence (Q5T2W1 238-333, limits assumed, looked up): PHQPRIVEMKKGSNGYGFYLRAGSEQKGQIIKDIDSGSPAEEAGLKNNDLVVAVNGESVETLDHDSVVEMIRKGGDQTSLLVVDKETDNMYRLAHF

[18] = target: DLG1_2, Q12959
Sequence of DLG1_2, Q12959 (Q12959 314-412): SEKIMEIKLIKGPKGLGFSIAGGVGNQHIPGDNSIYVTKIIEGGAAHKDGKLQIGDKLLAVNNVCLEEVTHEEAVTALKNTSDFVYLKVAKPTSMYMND

[19] = target: NHERF4_4, Q86UT5
Sequence of NHERF4_4, Q86UT5 (Q86UT5 464-550): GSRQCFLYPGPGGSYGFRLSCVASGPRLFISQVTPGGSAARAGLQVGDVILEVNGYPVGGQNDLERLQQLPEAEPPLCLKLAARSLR

[20] = target: SCRIB_3, Q14160
Sequence of SCRIB_3, Q14160 (Q14160 999-1103): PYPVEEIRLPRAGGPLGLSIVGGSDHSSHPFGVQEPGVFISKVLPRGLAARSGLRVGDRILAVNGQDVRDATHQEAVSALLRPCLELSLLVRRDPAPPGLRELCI

[21] = target: MAST2, Q6P0Q8
Sequence of MAST2, Q6P0Q8 (Q6P0Q8 1099-1202): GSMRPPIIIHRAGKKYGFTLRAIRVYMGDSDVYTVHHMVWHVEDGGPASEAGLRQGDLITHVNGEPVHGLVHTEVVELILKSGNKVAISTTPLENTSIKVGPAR

[22] = target: T7, MPP6, Q9NZW5
T7 sequence (Q9NZW5 125-219, limits assumed, looked up): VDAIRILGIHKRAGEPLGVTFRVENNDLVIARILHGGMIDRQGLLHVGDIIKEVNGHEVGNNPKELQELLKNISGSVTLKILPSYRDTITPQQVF

[23] = target: LDB3, O75112
Sequence of LDB3, O75112 (O75112 1-94): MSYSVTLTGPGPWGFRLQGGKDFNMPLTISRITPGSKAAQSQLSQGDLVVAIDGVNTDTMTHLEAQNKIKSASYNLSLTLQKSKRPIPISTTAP

[24] = target: DLG4_2, P78352
Sequence of DLG4_2, P78352 (P78352 155-259): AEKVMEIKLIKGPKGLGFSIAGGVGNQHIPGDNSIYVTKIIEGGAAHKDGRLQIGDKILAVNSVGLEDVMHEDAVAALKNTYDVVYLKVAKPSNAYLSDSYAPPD

[25] = target: TJP1_3, Q07157
Sequence of TJP1_3, Q07157 (Q07157 416-512): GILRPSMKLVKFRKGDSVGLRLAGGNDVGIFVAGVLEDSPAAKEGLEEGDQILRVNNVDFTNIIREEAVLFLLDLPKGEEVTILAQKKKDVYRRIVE

[26] = target: IL16_4, Q14005
Sequence of IL16_4, Q14005 (Q14005 1229-1329): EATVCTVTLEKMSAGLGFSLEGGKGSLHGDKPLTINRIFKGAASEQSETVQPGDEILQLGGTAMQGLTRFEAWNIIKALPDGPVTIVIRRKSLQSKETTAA

[27] = target: LAP2, Q96RT1
Sequence of LAP2, Q96RT1 (Q96RT1 other isoform, or with tags, fused parts or gaps): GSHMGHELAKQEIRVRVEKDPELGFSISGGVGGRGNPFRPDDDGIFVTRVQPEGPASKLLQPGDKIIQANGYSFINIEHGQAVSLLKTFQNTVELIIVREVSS

[28] = target: DLG1_3, Q12959
Sequence of DLG1_3, Q12959 (Q12959 457-571): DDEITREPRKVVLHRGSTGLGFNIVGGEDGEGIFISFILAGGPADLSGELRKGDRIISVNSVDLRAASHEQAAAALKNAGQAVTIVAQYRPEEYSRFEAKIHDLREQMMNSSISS

[29] = target: T8, SNTG1, Q9NSN8
T8 sequence (Q9NSN8 52-150, limits assumed, looked up): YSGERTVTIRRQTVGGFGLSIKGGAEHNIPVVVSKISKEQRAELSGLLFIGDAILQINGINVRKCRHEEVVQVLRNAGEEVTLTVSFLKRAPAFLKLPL

[30] = target: SCRIB_1, Q14160
Sequence of SCRIB_1, Q14160 (Q14160 718-814): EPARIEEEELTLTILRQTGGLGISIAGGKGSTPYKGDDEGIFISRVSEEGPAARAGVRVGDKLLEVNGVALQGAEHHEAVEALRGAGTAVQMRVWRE

[31] = plain residues with an end cap or a label only (N-terminal biotin on a linker: ado-ado)
[32] = plain residues with an end cap or a label only (N-terminal biotin on a linker: (peg)3)

LPAHHNATRL [SLC34A1, Q06495;Q06495-1]
pKd [1, 31]: below the threshold | pKd [2, 31]: below the threshold | pKd [3, 31]: below the threshold | pKd [4, 31]: below the threshold | pKd [5, 31]: 5.24 | pKd [6, 31]: below the threshold | pKd [7, 31]: 4.44 | pKd [8, 31]: below the threshold | pKd [9, 31]: 4.62 | pKd [10, 31]: 4.15 | pKd [11, 31]: 4 | pKd [12, 31]: below the threshold | pKd [13, 31]: 4.19 | pKd [14, 31]: 4.26 | pKd [15, 31]: below the threshold | pKd [16, 31]: below the threshold | pKd [17, 31]: 4.47 | pKd [18, 31]: below the threshold | pKd [19, 31]: below the threshold | pKd [20, 31]: 4.02 | pKd [21, 31]: 5.47 | pKd [22, 31]: below the threshold | pKd [23, 31]: below the threshold | pKd [24, 31]: below the threshold | pKd [25, 31]: below the threshold | pKd [26, 31]: below the threshold | pKd [27, 31]: below the threshold | pKd [28, 31]: below the threshold | pKd [29, 31]: below the threshold

NLNSSEGVPDLLV [SARS-CoV-E, P59637]
pKd [1, 32]: below the threshold | pKd [2, 32]: below the threshold | pKd [3, 32]: 4.27 | pKd [4, 32]: below the threshold | pKd [5, 32]: below the threshold | pKd [6, 32]: below the threshold | pKd [7, 32]: below the threshold | pKd [30, 32]: below the threshold | pKd [8, 32]: below the threshold | pKd [9, 32]: below the threshold | pKd [10, 32]: below the threshold | pKd [11, 32]: below the threshold | pKd [12, 32]: below the threshold | pKd [13, 32]: below the threshold | pKd [14, 32]: below the threshold | pKd [15, 32]: below the threshold | pKd [16, 32]: below the threshold | pKd [17, 32]: below the threshold | pKd [18, 32]: below the threshold | pKd [19, 32]: below the threshold | pKd [20, 32]: below the threshold | pKd [21, 32]: below the threshold | pKd [22, 32]: below the threshold | pKd [23, 32]: below the threshold | pKd [24, 32]: below the threshold | pKd [25, 32]: below the threshold | pKd [26, 32]: below the threshold | pKd [27, 32]: below the threshold | pKd [28, 32]: below the threshold | pKd [29, 32]: below the threshold

YLEPVLSSEL [ATP2A2, P16615;P16615-3]
pKd [1, 31]: below the threshold | pKd [2, 31]: below the threshold | pKd [3, 31]: below the threshold | pKd [4, 31]: 3.98 | pKd [5, 31]: 5.47 | pKd [6, 31]: below the threshold | pKd [7, 31]: 5.38 | pKd [30, 31]: 4.38 | pKd [8, 31]: below the threshold | pKd [9, 31]: 4.04 | pKd [10, 31]: below the threshold | pKd [11, 31]: 4.93 | pKd [12, 31]: below the threshold | pKd [13, 31]: below the threshold | pKd [14, 31]: 4.82 | pKd [15, 31]: below the threshold | pKd [16, 31]: below the threshold | pKd [17, 31]: below the threshold | pKd [18, 31]: below the threshold | pKd [19, 31]: below the threshold | pKd [20, 31]: 4.51 | pKd [21, 31]: 5.81 | pKd [22, 31]: below the threshold | pKd [23, 31]: below the threshold | pKd [24, 31]: below the threshold | pKd [25, 31]: below the threshold | pKd [26, 31]: below the threshold | pKd [28, 31]: below the threshold | pKd [29, 31]: below the threshold

KSGKQTMLVV [TRIM29, Q14134;Q14134-2]
pKd [1, 31]: below the threshold | pKd [3, 31]: below the threshold | pKd [5, 31]: below the threshold | pKd [6, 31]: below the threshold | pKd [30, 31]: below the threshold | pKd [8, 31]: below the threshold | pKd [9, 31]: below the threshold | pKd [10, 31]: below the threshold | pKd [12, 31]: below the threshold | pKd [13, 31]: below the threshold | pKd [14, 31]: below the threshold | pKd [15, 31]: below the threshold | pKd [16, 31]: below the threshold | pKd [20, 31]: below the threshold | pKd [22, 31]: below the threshold | pKd [23, 31]: below the threshold | pKd [27, 31]: below the threshold

VYPNAKVELV [PDLIM4_iso2, P50479;P50479-1]
pKd [1, 31]: below the threshold | pKd [2, 31]: below the threshold | pKd [3, 31]: below the threshold | pKd [4, 31]: below the threshold | pKd [5, 31]: below the threshold | pKd [6, 31]: below the threshold | pKd [7, 31]: below the threshold | pKd [30, 31]: below the threshold | pKd [8, 31]: below the threshold | pKd [13, 31]: 4.26 | pKd [14, 31]: below the threshold | pKd [15, 31]: below the threshold | pKd [16, 31]: below the threshold | pKd [17, 31]: below the threshold | pKd [18, 31]: below the threshold | pKd [19, 31]: below the threshold | pKd [20, 31]: below the threshold | pKd [21, 31]: below the threshold | pKd [22, 31]: below the threshold | pKd [23, 31]: below the threshold | pKd [24, 31]: below the threshold | pKd [25, 31]: below the threshold | pKd [27, 31]: below the threshold | pKd [28, 31]: below the threshold | pKd [29, 31]: below the threshold
